# T1: Soluble CDCP1 extracellular domain (CDCP1-ECD) (SEQ ID NO:30) fused to Streptavidin Binding Protein (SBP) (human, UniProt Q9H5V8 30-663)
# T1 construct: also called SBP-CDCP1-ECD
# T1 sequence: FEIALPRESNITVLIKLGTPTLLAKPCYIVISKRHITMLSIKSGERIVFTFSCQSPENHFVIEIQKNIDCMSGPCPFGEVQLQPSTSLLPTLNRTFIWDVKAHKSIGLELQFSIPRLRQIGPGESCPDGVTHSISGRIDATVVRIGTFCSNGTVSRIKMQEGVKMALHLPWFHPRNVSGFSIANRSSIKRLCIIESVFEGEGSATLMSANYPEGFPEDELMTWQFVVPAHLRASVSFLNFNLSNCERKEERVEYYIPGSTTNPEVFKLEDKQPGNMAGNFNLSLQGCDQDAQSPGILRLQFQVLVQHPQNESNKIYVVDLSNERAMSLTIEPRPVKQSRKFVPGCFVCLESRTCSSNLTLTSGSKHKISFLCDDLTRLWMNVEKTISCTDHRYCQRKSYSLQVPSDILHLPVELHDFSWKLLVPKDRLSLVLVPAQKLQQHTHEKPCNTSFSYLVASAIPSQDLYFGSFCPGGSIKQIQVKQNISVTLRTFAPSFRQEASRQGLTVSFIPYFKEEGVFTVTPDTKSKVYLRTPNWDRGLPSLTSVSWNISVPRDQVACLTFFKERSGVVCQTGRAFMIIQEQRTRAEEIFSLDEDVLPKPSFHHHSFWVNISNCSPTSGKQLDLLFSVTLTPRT
# T2: Human CDCP1 (CUB domain containing protein 1) on DU-145 cells (human, UniProt Q9H5V8 30-836)
# T2 sequence: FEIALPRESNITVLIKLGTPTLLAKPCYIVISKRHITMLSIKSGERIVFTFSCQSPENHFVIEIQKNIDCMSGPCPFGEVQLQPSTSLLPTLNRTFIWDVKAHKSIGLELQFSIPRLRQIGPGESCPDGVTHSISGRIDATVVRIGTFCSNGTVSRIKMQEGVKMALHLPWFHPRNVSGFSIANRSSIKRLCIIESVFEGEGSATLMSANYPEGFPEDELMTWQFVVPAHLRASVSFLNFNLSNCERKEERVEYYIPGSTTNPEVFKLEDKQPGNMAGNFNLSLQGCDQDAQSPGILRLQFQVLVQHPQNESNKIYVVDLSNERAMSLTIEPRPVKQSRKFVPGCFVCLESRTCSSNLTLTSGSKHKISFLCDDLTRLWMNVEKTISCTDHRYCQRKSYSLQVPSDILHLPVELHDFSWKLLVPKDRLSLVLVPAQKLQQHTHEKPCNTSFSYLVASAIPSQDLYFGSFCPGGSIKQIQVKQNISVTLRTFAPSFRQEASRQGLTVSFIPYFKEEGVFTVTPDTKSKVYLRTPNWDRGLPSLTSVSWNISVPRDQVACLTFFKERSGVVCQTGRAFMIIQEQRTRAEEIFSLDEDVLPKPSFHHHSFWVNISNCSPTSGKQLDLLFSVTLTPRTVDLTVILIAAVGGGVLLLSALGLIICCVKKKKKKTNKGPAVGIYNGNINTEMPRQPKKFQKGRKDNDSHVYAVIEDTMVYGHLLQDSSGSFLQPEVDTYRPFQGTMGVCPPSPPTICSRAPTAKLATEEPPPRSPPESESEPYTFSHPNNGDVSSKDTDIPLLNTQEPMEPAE
# T3: extracellular-domain-(ECD)-comprising fragment of human CDCP1 of SEQ ID NO: 30 (human, UniProt Q9H5V8 30-663)
# T3 construct: also called CDCP1 ECD; CDCP1-ECD
# T3 sequence: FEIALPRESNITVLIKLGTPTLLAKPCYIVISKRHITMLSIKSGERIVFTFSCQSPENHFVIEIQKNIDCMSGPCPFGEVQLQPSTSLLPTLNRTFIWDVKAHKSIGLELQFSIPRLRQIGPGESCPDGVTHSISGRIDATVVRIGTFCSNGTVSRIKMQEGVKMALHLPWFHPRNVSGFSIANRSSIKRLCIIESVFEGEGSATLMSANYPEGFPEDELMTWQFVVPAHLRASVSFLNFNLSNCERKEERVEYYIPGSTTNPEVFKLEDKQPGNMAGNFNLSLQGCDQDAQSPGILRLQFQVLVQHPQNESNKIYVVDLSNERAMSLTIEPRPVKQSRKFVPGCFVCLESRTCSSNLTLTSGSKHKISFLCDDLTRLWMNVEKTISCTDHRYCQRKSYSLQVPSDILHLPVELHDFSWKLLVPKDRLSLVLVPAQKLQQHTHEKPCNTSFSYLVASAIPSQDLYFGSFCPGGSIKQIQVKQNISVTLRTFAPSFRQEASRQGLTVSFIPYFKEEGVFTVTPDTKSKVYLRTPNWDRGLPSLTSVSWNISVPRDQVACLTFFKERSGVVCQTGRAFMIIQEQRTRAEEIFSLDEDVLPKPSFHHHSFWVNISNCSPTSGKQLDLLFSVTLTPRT
# What was measured:
# [1] = target: T1, Soluble CDCP1 extracellular domain …; experiment: ELISA on captured SBP-CDCP1-ECD, ratio relative to chimeric CUB4 (chHC4)
# Outline: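 Streptavidin plates coated overnight at 2–8° C with SBP-CDCP1-ECD HEK293 supernatant (1:15–1:40). Antibodies, undiluted or 12-step dilution, bound 90 min at room temperature; HRP anti-human IgG 1 h, ABTS read at 405/492 nm, signal expressed relative to chimeric chHC4 reference.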
# [2] = target: T2, Human CDCP1 (CUB domain containing …); experiment: cell-based or functional assay
# [3] = target: T3, extracellular-domain-(ECD)-comprising …; experiment: SPR (Biacore T100), antibody captured, CDCP1 ECD as analyte, 25 C, Langmuir 1:1
# Experimental: After conjugation, different anti-CDCP1 antibodies were injected at 25° C. at a flow rate of 5 μL/min, followed by a dilution series (0 nM to 1000 nM) of CDCP1 ECD at 30 μL/min. As running buffer for the binding experiment PBS/0.1% BSA was used. The chip was then regenerated with a 60s pulse of 10 mM glycine-HCl, pH 2.0 solution.
# Calculation of thermodynamic parameters (KD, binding constant) and kinetic parameters (kₒₙ rate, koff rate) were calculated using a Langmuir 1:1 binding model.
Binder,relative binding ratio [1],"Percent (%) stimulation of CDCP1 phosphorylation in DU-145 cells (Western blot, densitometry) [2] [%]",Kd [3] [nM],koff [3] [s⁻¹],kon [3] [M⁻¹ s⁻¹],t½ diss. [3] [min],binding result [1]
"Humanized CUB4 Antibody No. 69 (antibody, IgG1, V domains shown, Human constant region; also called Antibody 69; hHC4-H / hLC-L2) VH: EVQLVESGGGLVQPGGSLRLSCAASGFTFNSYGMSWVRQAPGKGLEWVATISSGGSYKYYVDSVKGRFTISRDNAKNSLYLQMNSLRAEDTAVYYCARHPDYDGVWFAYWGQGTLVTVSS VL: EIVLTQSPATLSLSPGERATMSCSVSSSVFYLHWYQQKPGQAPRLWIYDTSKLASGIPARFSGSGSGTDFTLTISSLEPEDFAVYYCQQWNSNPPTFGGGTKVEIK",0.69,112,2.55,0.00052,210000,22.1,
"hHC4-b / hLC4-d (antibody, V domains shown) VH: EVQLVESGGGLVKPGGSLRLSCAASGFTFNSYSMNWVRQAPGKGLEWVSSISSGGSYIYYADSVKGRFTISRDNAKNSLYLQMNSLRAEDTAVYYCARHPDYDGVWFAYWGQGTLVTVSS VL: EIVMTQSPATLSVSPGERATLSCSVSSSVFYVHWYQQKPGQAPRLLIYDTSKLASGIPARFSGSGSGTEYTLTISSLQSEDFAVYYCQQWNSNPPTFGGGTKVEIK",,,,,,,no binding
"Humanized CUB4 Antibody No. 135 (antibody, IgG1, V domains shown, Human constant region, preferably IgG1; also called Antibody 135; hHC4-H / hLC-e) VH: EVQLVESGGGLVQPGGSLRLSCAASGFTFNSYGMSWVRQAPGKGLEWVATISSGGSYKYYVDSVKGRFTISRDNAKNSLYLQMNSLRAEDTAVYYCARHPDYDGVWFAYWGQGTLVTVSS VL: DIQMTQSPSSLSASVGDRVTITCSVSSSVFYVHWYQQKPGKAPKLLIYDTSKLASGVPSRFSGSGSGTDFTFTISSLQPEDIATYYCQQWNSNPPTFGGGTKVEIK",0.47,72,8.3,0.0011,140000,10.3,
"Humanized CUB4 Antibody No. 91 (antibody, IgG1, V domains shown, Only variable domains are tied to the antibody; Human constant region, preferably IgG1; also called hHC4-H / hLC-a) VH: EVQLVESGGGLVQPGGSLRLSCAASGFTFNSYGMSWVRQAPGKGLEWVATISSGGSYKYYVDSVKGRFTISRDNAKNSLYLQMNSLRAEDTAVYYCARHPDYDGVWFAYWGQGTLVTVSS VL: EIVLTQSPATLSLSPGERATLSCSVSSSVFYVHWYQQKPGQAPRLLIYDTSKLASGIPARFSGSGSGTDFTLTISSLEPEDFAVYYCQQWNSNPPTFGGGTKVEIK",0.51,,5.6,0.001,180000,11.2,
"Humanized CUB4 Antibody No. 47 (antibody, human IgG1, V domains shown, Only variable domains are tied to the antibody; also called humanized anti-CDCP1 antibody 47; hHC4-H / hLC-K) VH: EVQLVESGGGLVQPGGSLRLSCAASGFTFNSYGMSWVRQAPGKGLEWVATISSGGSYKYYVDSVKGRFTISRDNAKNSLYLQMNSLRAEDTAVYYCARHPDYDGVWFAYWGQGTLVTVSS VL: EIVLTQSPATLSLSPGERATLSCRASSSVFYLHWYQQKPGQAPRLWIYDTSKLASGIPARFSGSGSGTDFTLTISSLEPEDFAVYYCQQWNSNPPTFGGGTKVEIK",0.46,96,3.77,0.00075,200000,15.4,
"Humanized CUB4 Antibody No. 80 (antibody, IgG1, V domains shown, Only variable domains are tied to the antibody; Human constant region, preferably IgG1; also called hHC4-H / hLC-M) VH: EVQLVESGGGLVQPGGSLRLSCAASGFTFNSYGMSWVRQAPGKGLEWVATISSGGSYKYYVDSVKGRFTISRDNAKNSLYLQMNSLRAEDTAVYYCARHPDYDGVWFAYWGQGTLVTVSS VL: EIVLTQSPATLSLSPGERATMSCGASSSVFYLHWYQQKPGLAPRLWIYDTSKLASGIPDRFSGSGSGTDFTLTISRLEPEDFAVYYCQQWNSNPPTFGGGTKVEIK",0.56,133,3.53,0.00088,250000,13.1,
"chHC4 / hLC4-I (antibody, V domains shown) VH: EVQLVESGGDLVKPGGSLKLSCAASGFTFNSYGMSWVRQTPDKRLEWVATISSGGSYTYYPDSVKGRFTISRDNAKNTLYLQMSSLKSEDTAMYYCARHPDYDGVWFAYWGQGTLVTVSA VL: EIVMTQSPATLSLSPGERATLSCRASSSVFYLSWYQQKPGQAPRLWIYDTSKLASGIPARFSGSGSGTDFTLTISSLQPEDFAVYYCQQWNSNPPTFGGGTKVEIK",,,,,,,no binding

# Results, then the binder that gave them:
relative binding ratio [1],"Percent (%) stimulation of CDCP1 phosphorylation in DU-145 cells (Western blot, densitometry) [2] [%]",Kd [3] [nM],koff [3] [s⁻¹],kon [3] [M⁻¹ s⁻¹],t½ diss. [3] [min],binding result [1],Binder
,,,,,,no binding,"hHC4-b / hLC4-c (antibody, V domains shown) VH: EVQLVESGGGLVKPGGSLRLSCAASGFTFNSYSMNWVRQAPGKGLEWVSSISSGGSYIYYADSVKGRFTISRDNAKNSLYLQMNSLRAEDTAVYYCARHPDYDGVWFAYWGQGTLVTVSS VL: EIVMTQSPATLSVSPGERATLSCSVSSSVFYVHWYQQKPGQAPRLLIYDTSKLASGIPARFSGSGSGTEFTLTISSLQSEDFAVYYCQQWNSNPPTFGGGTKVEIK"
,,,,,,no binding,"hHC4-K / hLC4-d (antibody, V domains shown) VH: EVQLVESGGGLVKPGGSLRLSCAASGFTFNSYGMSWVRQAPGKGLEWVSSISSGGSYIYYADSVKGRFTISRDNAKNSLYLQMNSLRAEDTAVYYCARHPDYDGVWFAYWGQGTLVTVSS VL: EIVMTQSPATLSVSPGERATLSCSVSSSVFYVHWYQQKPGQAPRLLIYDTSKLASGIPARFSGSGSGTEYTLTISSLQSEDFAVYYCQQWNSNPPTFGGGTKVEIK"
0.53,,5.4,0.0011,190000,11,,"Humanized CUB4 Antibody No. 102 (antibody, IgG1, V domains shown, Only variable domains are tied to the antibody; Human constant region, preferably IgG1; also called hHC4-H / hLC-b) VH: EVQLVESGGGLVQPGGSLRLSCAASGFTFNSYGMSWVRQAPGKGLEWVATISSGGSYKYYVDSVKGRFTISRDNAKNSLYLQMNSLRAEDTAVYYCARHPDYDGVWFAYWGQGTLVTVSS VL: EIVLTQSPATLSLSPGERATLSCSVSSSVFYVHWYQQKPGQAPRLLIYDTSKLASGIPARFSGSGSGTDYTLTISSLEPEDFAVYYCQQWNSNPPTFGGGTKVEIK"
,100,,,,,,"chimeric (chHC4) CUB4 antibody comprising human constant region and mouse VH and VL (antibody, human IgG1, V domains shown) VH: EVQLVESGGDLVKPGGSLKLSCAASGFTFNSYGMSWVRQTPDKRLEWVATISSGGSYTYYPDSVKGRFTISRDNAKNTLYLQMSSLKSEDTAMYYCARHPDYDGVWFAYWGQGTLVTVSA VL: QIVLTQSPAIMSASPGEKVTMTCSVSSSVFYVHWYQQKSGTSPKRWIYDTSKLASGVPARFSGSGSGTSYSLTISSMEAEDAATYYCQQWNSNPPTFGGGTKLEIK"

# Reference: patent US20110052582A1 (Hoffmann-La Roche, published 2011)
